The source of these data is patent publication US20130097729A1.

For this assay, the target named is whole pea aphid BBMV proteins. Put plainly: pull-down with whole pea aphid BBMV, anti-GFP western blot, ImageJ band intensities. (In western blotting, separated proteins are transferred to a membrane and probed.)

GBP3.1(R8A)EGFP (peptide) gave a fold increase in BBMV binding efficiency against GBP3.1-EGFP of 5 fold.
